Data as given in patent US11491212.

B1: FIXa-R318Y/R338E/T343R/E410N (protein)
chain 1: not shown
chain 2: not shown
B2: FIXa-K293E/R338E/R403E (protein)
chain 1: not shown
chain 2: not shown
B3: FIXa variant R318Y/R338E/E410N/T412V (protein)
chain 1: not shown
chain 2: not shown
B4: FIXa-K293A/R338A/R403A (protein)
chain 1: not shown
chain 2: not shown

How the values were obtained:
[1] = target: Factor X (FX), P00742
[2] = target: Factor X (FX), active site titrated and DFP/EGR-cmk treated zymogen, P00742
Factor X (FX), active site titrated and DFP/EGR-cmk treated zymogen, P00742, sequence (P00742 whole entry, looked up): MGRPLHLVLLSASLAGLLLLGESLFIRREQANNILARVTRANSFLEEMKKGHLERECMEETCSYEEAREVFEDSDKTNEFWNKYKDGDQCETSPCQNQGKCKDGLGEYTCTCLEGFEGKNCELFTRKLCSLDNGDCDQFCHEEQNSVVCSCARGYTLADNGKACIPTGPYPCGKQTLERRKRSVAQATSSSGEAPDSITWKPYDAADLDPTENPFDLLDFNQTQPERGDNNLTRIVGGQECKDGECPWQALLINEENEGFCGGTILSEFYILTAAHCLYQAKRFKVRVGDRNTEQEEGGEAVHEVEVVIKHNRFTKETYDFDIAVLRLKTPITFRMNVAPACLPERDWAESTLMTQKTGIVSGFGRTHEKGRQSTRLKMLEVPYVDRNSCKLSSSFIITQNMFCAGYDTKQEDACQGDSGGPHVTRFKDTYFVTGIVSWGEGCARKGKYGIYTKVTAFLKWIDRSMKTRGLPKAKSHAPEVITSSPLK

[3] = target: Factor X, P00742
Factor X, P00742, sequence (P00742 whole entry, looked up): as above

[4] = target: plasma purified human AT-III (antithrombin III), in complex with low molecular weight heparin
[5] = target: Antithrombin III (plasma purified human AT-III) in complex with unfractionated heparin; test: ratio of K0.5 of variant to K0.5 of Catalyst Biosciences WT FIXa, AT-III/UFH inhibition assay

Factor X (FX), P00742, sequence (P00742 whole entry, looked up): as above

Protein	KM [1] [nM]	catalytic activity (kcat/KM for activation of FX) [2]	kcat/KM [3] [M⁻¹ s⁻¹]	K0.5-mut/K0.5-wt (against Catalyst Biosciences WT FIXa), AT-III/LMWH [4] [fold]	KM of FX activation by FIXa in the Xase complex (FVIIIa, PC/PS vesicles, Ca2+); fluorogenic Spectrafluor FXa assay [3] [nM]	K0.5-mut/K0.5-wt [5]
B1	16.4	displayed some of the greatest increases in catalytic activity	3.4e+08	–	–	–
B2	50	–	–	14.2	50	–
B3	–	–	–	–	–	> 517
B4	65.4	–	–	16.9	65.4	–
